System: whole blood
Assay: Varying concentrations assay of hemostatic agent in the microfluidic hemostasis device (coagulation time at the vascular injury site)
Format: cell-based
Text: Biomolecules such as tissue factor (TF) can be used as a surrogate for hemostatic agents. TF is the primary cellular initiator of blood coagulation via the extrinsic pathway. After vessel injury, the TF:VIIa complex activates the coagulation protease cascade, which leads to fibrin deposition and activation of platelets (see FIGS. 7-8). TF expression by nonvascular cells plays an essential role in hemostasis by activating blood coagulation. In contrast, TF expression by vascular cells induces intravascular thrombosis. […] TF can be allowed to adhere to the surface of the channels by incubating at 37° C. and 5% CO2. Saline wash can be initiated to wash off any residual TF.
In order to mimic these conditions observed, TNF-α at a concentration of 10 μg/ml can be injected near the wound site of the tissue channel (e.g., outer channel) from the top inlet of the device. It should be noted that endothelial cells cultured in the vascular channel (e.g., central channel) can grow near the wound site opening, and also into the tissue area. Injection of TNF-α can activate the endothelial cells adjacent to the injection site to start expressing TF. At about 8 hour after activation, hemostasis restoration experiments can be initiated.
Whole blood can be kept anticoagulated using corn trypsin inhibitor (CTI). […] The time taken to completely repair (block) the opening can be recorded (FIG. 8). […]

B1: Tissue factor: primary cellular initiator of blood coagulation via the extrinsic pathway, used as a surrogate for hemostatic agents (protein, UniProt P13726 33-295, looked up)
Tissue factor: SGTTNTVAAYNLTWKSTNFKTILEWEPKPVNQVYTVQISTKSGDWKSKCFYTTDTECDLTDEIVKDVKQTYLARVFSYPAGNVESTGSAGEPLYENSPEFTPYLETNLGQPTIQSFEQVGTKVNVTVEDERTLVRRNNTFLSLRDVFGKDLIYTLYYWKSSSSGKKTAKTNTNEFLIDVDKGENYCFSVQAVIPSRTVNRKSTDSPVECMGQEKGEFREIFYIIGAVVFVVIILVIILAISLHKCRKAGVGQSWKENSPLNVS
Tissue factor at higher concentration of 10 μg/ml (extreme dose scenario)
  time to coagulate (coagulation time of the whole blood at the vascular injury site): less than 5 minutes
Tissue factor coated at 10 ng/ml in the tissue channel
  time to coagulate (coagulation time of the whole blood at the vascular injury site): ≥ 5 min

From patent US20160161469A1, “SYNTHETIC MICROFLUIDIC SYSTEMS FOR WOUND HEALING” (CFD Research Corporation, priority 2013, published 2016)
